Source: PMC6053953
Values joined by “and” are separate entries in the source; they are usually repeats but may differ in a detail not shown here. Identical values can stand only once.

How the values were obtained:
[1] = target: His6-tagged human peroxiredoxin 3 (human); test: native MS; 20 uM protein (monomer) buffer exchanged from pH 8.0 into 100 mM ammonium acetate, pH 4.0; spectra from 60 seconds (0 hours) to 3 hours after exchange; step: ring-to-ring stacking
[2] = target: His6-tagged human peroxiredoxin 3 (human); test: native MS; 20 uM protein (monomer) in 100 mM ammonium acetate, pH 8.0; trap collision energy 20 V; step: chains to the dodecameric ring
[3] = target: His6-tagged human peroxiredoxin 3 (human); test: SEC-SLS; Superdex 200 Increase 10/300 GL with refractive index and right-angle light scattering, 28 C; 20 uM protein in 100 mM ammonium acetate, pH 8.0; step: chains to the dodecameric ring
[4] = target: His6-tagged human peroxiredoxin 3 (human); test: native MS; protein buffer exchanged from 100 mM ammonium acetate, pH 4.0, back into pH 8.0 before injection; step: stacks of rings back to single rings
[5] = target: His6-tagged human peroxiredoxin 3 (human); test: AUC; sedimentation velocity, 20 C, 20 uM protein (monomer) in 100 mM ammonium acetate, pH 4.0; c(s) distribution; step: ring-to-ring stacking
[6] = target: cleaved human peroxiredoxin 3 (human); test: native MS; 20 uM protein (monomer) buffer exchanged from pH 8.0 into 100 mM ammonium acetate, pH 4.0; spectra from 60 seconds (0 hours) to 3 hours after exchange; step: ring-to-ring stacking
[7] = target: cleaved human peroxiredoxin 3 (human); test: native MS; 20 uM protein (monomer) in 100 mM ammonium acetate, pH 8.0; trap collision energy 20 V; step: chains to the dodecameric ring
[8] = target: cleaved human peroxiredoxin 3 (human); test: SEC-SLS; Superdex 200 Increase 10/300 GL with refractive index and right-angle light scattering, 28 C; 20 uM protein in 100 mM ammonium acetate, pH 8.0; step: chains to the dodecameric ring
[9] = target: cleaved human peroxiredoxin 3 (human); test: native MS; protein buffer exchanged from 100 mM ammonium acetate, pH 4.0, back into pH 8.0 before injection; step: stacks of rings back to single rings
[10] = target: cleaved human peroxiredoxin 3 (human); test: AUC; sedimentation velocity, 20 C, 20 uM protein (monomer) in 100 mM ammonium acetate, pH 4.0; c(s) distribution; step: ring-to-ring stacking

rings in a stack [1]	stoichiometry N [2]	stoichiometry N [3]	rings in a stack [4]	rings in a stack [5]	rings in a stack [6]	rings in the most populated stack [6]	stoichiometry N [7]	stoichiometry N [8]	rings in a stack [9]	rings in a stack (main population) [10]	Substance
2 to 3 rings	12	12	1 rings	2 rings and 4 rings	–	–	–	–	–	–	His6-tagged human peroxiredoxin 3 (natural protein)
–	–	–	–	–	6 rings	3 rings	12	12	1 rings and 2 rings	34 rings	cleaved human peroxiredoxin 3 (natural protein)
